One block for each substance: values may come before it.
Experiments:
Assay in all cases: cell-based or functional assay
[1] = biological target: Recombinant human FVIIa (NovoSeven) (human) (UniProt P08709)
[2] = biological target: MOD-5014 (FVIIa-CTP3, activated Factor VII-CTP-CTP-CTP) (human) (UniProt P08709)
[3] = biological target: Factor X (UniProt P00742)
[4] = biological target: Factor X (FX) (UniProt P00742)
[5] = biological target: MOD-5014/TF complex (UniProt P13726)
[6] = biological target: MOD-5000/TF complex (UniProt P08709)
[7] = biological target: NovoSeven (commercial recombinant human FVIIa) (human) (UniProt P08709)

Tissue Factor Pathway Inhibitor (TFPI), sequence (P10646 29-304 limits assumed): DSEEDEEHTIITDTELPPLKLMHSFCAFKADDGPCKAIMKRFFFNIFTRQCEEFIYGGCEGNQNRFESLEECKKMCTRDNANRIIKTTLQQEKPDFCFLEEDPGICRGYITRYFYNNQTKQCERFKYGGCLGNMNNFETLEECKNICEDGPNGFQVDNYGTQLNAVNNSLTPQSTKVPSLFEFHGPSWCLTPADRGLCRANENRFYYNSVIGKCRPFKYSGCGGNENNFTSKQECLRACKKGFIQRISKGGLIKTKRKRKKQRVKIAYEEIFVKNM
Factor X, sequence (P00742 41-488 limits assumed): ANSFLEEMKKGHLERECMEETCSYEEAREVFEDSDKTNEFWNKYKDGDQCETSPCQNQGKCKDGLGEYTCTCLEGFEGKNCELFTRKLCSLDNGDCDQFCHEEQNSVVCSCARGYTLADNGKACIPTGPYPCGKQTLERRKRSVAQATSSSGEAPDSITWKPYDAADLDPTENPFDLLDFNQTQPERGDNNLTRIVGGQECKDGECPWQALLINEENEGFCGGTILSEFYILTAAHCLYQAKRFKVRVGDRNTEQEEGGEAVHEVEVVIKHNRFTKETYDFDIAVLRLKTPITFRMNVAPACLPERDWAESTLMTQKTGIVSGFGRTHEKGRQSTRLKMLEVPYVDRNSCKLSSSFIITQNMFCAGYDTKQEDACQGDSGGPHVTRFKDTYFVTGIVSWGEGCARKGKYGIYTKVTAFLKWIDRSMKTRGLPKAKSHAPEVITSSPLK
Factor X (FX), sequence (P00742 41-488 limits assumed): as above

IC50 of anti-thrombin on FX activation (chromogenic), 0.7 ng/ml FVIIa, 1 U/µl heparin [1]: 65.7 µg/mL
IC50 of anti-thrombin on FX activation (chromogenic), 0.7 ng/ml FVIIa, 1 U/µl heparin [2]: 49.6 µg/mL
Substance: Anti-thrombin III (AT III) (from UniProt P01008 33-464)

O.D, FX activation (chromogenic), rFVIIa 0.0320 ng/ml [3]: 0.138 O.D
O.D, FX activation (chromogenic), rFVIIa 0.160 ng/ml [3]: 0.178 O.D
O.D, FX activation (chromogenic), rFVIIa 0.80 ng/ml [3]: 0.303 O.D
O.D, FX activation (chromogenic), rFVIIa 4.00 ng/ml [3]: 0.352 O.D
O.D, FX activation (chromogenic), rFVIIa 20.00 ng/ml [3]: 0.365 O.D
O.D, FX activation (chromogenic), rFVIIa 100.00 ng/ml [3]: 0.363 O.D
Substance: NovoSeven (commercial recombinant human FVIIa) (from UniProt P08709 61-212; P08709 213-466) (enzyme)

EC50 of Factor X activation (BIOPHEN FVII chromogenic assay) [4]: 0.38 ng/mL
Substance: Recombinant human FVIIa (NovoSeven) (from UniProt P08709 61-212; P08709 213-466) (enzyme)

K (rate constant of the loss of FVIIa/TF activity with AT 1 uM and heparin 5 U/mL) [5]: 0.217 Min·^1
K (rate constant of the loss of FVIIa/TF activity with AT 1 uM and heparin 5 U/mL) [6]: 0.354 Min·^1
Substance: Anti-thrombin (AT) (from UniProt P01008 33-464)

% Inhibition of clotting activity, TFPI 0.625 ng/mL [2]: 15%
% Inhibition of clotting activity, TFPI 6.25 ng/mL [2]: 15%
% Inhibition of clotting activity, TFPI 62.5 ng/mL [2]: 29%
% Inhibition of clotting activity, TFPI 625 ng/mL [2]: 80%
% Inhibition of clotting activity, TFPI 1250 ng/mL [2]: 89%
Activity (mU/mL), clotting assay, TFPI 0 ng/mL (no inhibitor) [2]: 66.8 mU/mL
Activity (mU/mL), clotting assay, TFPI 0.625 ng/mL [2]: 56.7 mU/mL
Activity (mU/mL), clotting assay, TFPI 6.25 ng/mL [2]: 56.7 mU/mL
Activity (mU/mL), clotting assay, TFPI 62.5 ng/mL [2]: 47.4 mU/mL
Activity (mU/mL), clotting assay, TFPI 625 ng/mL [2]: 13.2 mU/mL
Activity (mU/mL), clotting assay, TFPI 1250 ng/mL [2]: 7.3 mU/mL
FX activation by MOD-5014 (0.7 ng/ml) + 1 U/µl heparin, TFPI 0.002048 ng/ml [2]: 1.27
FX activation by MOD-5014 (0.7 ng/ml) + 1 U/µl heparin, TFPI 0.010240 ng/ml [2]: 1.29
FX activation by MOD-5014 (0.7 ng/ml) + 1 U/µl heparin, TFPI 0.051200 ng/ml [2]: 1.35
FX activation by MOD-5014 (0.7 ng/ml) + 1 U/µl heparin, TFPI 1.28 ng/ml [2]: 1.26
FX activation by MOD-5014 (0.7 ng/ml) + 1 U/µl heparin, TFPI 6.40 ng/ml [2]: 1.16
FX activation by MOD-5014 (0.7 ng/ml) + 1 U/µl heparin, TFPI 32.00 ng/ml [2]: 0.915
FX activation by MOD-5014 (0.7 ng/ml) + 1 U/µl heparin, TFPI 160.00 ng/ml [2]: 0.539
FX activation by MOD-5014 (0.7 ng/ml) + 1 U/µl heparin, TFPI 800.00 ng/ml [2]: 0.32
FX activation by MOD-5014 (0.7 ng/ml) + 1 U/µl heparin, TFPI 4000.00 ng/ml [2]: 0.115
FX activation by MOD-5014 (0.7 ng/ml) + 1 U/µl heparin, TFPI 20000.00 ng/ml [2]: 0.15
FX activation by MOD-5014 (0.7 ng/ml), Control [2]: 1.37
FX activation by MOD-5014 (4 ng/ml), Control (no TFPI) [2]: 1.58
FX activation by MOD-5014 (4 ng/ml), TFPI 0.002048 ng/ml [2]: 1.65
FX activation by MOD-5014 (4 ng/ml), TFPI 0.010240 ng/ml [2]: 1.64
FX activation by MOD-5014 (4 ng/ml), TFPI 0.051200 ng/ml [2]: 1.6
FX activation by MOD-5014 (4 ng/ml), TFPI 0.2560 ng/ml [2]: 1.62
FX activation by MOD-5014 (4 ng/ml), TFPI 1.28 ng/ml [2]: 1.56
FX activation by MOD-5014 (4 ng/ml), TFPI 6.40 ng/ml [2]: 1.54
FX activation by MOD-5014 (4 ng/ml), TFPI 32.00 ng/ml [2]: 1.47
FX activation by MOD-5014 (4 ng/ml), TFPI 160.00 ng/ml [2]: 1.14
FX activation by MOD-5014 (4 ng/ml), TFPI 800.00 ng/ml [2]: 0.836
FX activation by MOD-5014 (4 ng/ml), TFPI 4000.00 ng/ml [2]: 0.38
FX activation by MOD-5014 (4 ng/ml), TFPI 20000.00 ng/ml [2]: 0.17
O.D, FX activation by MOD-5014 (0.69 ng/ml), Control (no TFPI) [2]: 1.51 O.D
O.D, FX activation by MOD-5014 (0.69 ng/ml), TFPI 0.002048 ng/ml [2]: 1.48 O.D
O.D, FX activation by MOD-5014 (0.69 ng/ml), TFPI 0.010240 ng/ml [2]: 1.45 O.D
O.D, FX activation by MOD-5014 (0.69 ng/ml), TFPI 0.051200 ng/ml [2]: 1.45 O.D
O.D, FX activation by MOD-5014 (0.69 ng/ml), TFPI 0.2560 ng/ml [2]: 1.46 O.D
O.D, FX activation by MOD-5014 (0.69 ng/ml), TFPI 1.28 ng/ml [2]: 1.39 O.D
O.D, FX activation by MOD-5014 (0.69 ng/ml), TFPI 6.40 ng/ml [2]: 1.38 O.D
O.D, FX activation by MOD-5014 (0.69 ng/ml), TFPI 32.00 ng/ml [2]: 1.36 O.D
O.D, FX activation by MOD-5014 (0.69 ng/ml), TFPI 160.00 ng/ml [2]: 1.11 O.D
O.D, FX activation by MOD-5014 (0.69 ng/ml), TFPI 800.00 ng/ml [2]: 1.01 O.D
O.D, FX activation by MOD-5014 (0.69 ng/ml), TFPI 4000.00 ng/ml [2]: 0.691 O.D
O.D, FX activation by MOD-5014 (0.69 ng/ml), TFPI 20000.00 ng/ml [2]: 0.346 O.D
% Inhibition of clotting activity, TFPI 0.625 ng/mL [7]: 25%
% Inhibition of clotting activity, TFPI 6.25 ng/mL [7]: 24%
% Inhibition of clotting activity, TFPI 62.5 ng/mL [7]: 38%
% Inhibition of clotting activity, TFPI 625 ng/mL [7]: 87%
% Inhibition of clotting activity, TFPI 1250 ng/mL [7]: 96%
Activity (mU/mL), clotting assay, TFPI 0 ng/mL (no inhibitor) [7]: 72.3 mU/mL
Activity (mU/mL), clotting assay, TFPI 0.625 ng/mL [7]: 54.5 mU/mL
Activity (mU/mL), clotting assay, TFPI 6.25 ng/mL [7]: 55.3 mU/mL
Activity (mU/mL), clotting assay, TFPI 62.5 ng/mL [7]: 45 mU/mL
Activity (mU/mL), clotting assay, TFPI 625 ng/mL [7]: 9.5 mU/mL
Activity (mU/mL), clotting assay, TFPI 1250 ng/mL [7]: 2.9 mU/mL
FX activation by NovoSeven (0.7 ng/ml) + 1 U/µl heparin, TFPI 0.002048 ng/ml [7]: 1.33
FX activation by NovoSeven (0.7 ng/ml) + 1 U/µl heparin, TFPI 0.010240 ng/ml [7]: 1.3
FX activation by NovoSeven (0.7 ng/ml) + 1 U/µl heparin, TFPI 0.051200 ng/ml [7]: 1.37
FX activation by NovoSeven (0.7 ng/ml) + 1 U/µl heparin, TFPI 1.28 ng/ml [7]: 1.31
FX activation by NovoSeven (0.7 ng/ml) + 1 U/µl heparin, TFPI 6.40 ng/ml [7]: 1.21
FX activation by NovoSeven (0.7 ng/ml) + 1 U/µl heparin, TFPI 32.00 ng/ml [7]: 1.01
FX activation by NovoSeven (0.7 ng/ml) + 1 U/µl heparin, TFPI 160.00 ng/ml [7]: 0.764
FX activation by NovoSeven (0.7 ng/ml) + 1 U/µl heparin, TFPI 800.00 ng/ml [7]: 0.409
FX activation by NovoSeven (0.7 ng/ml) + 1 U/µl heparin, TFPI 4000.00 ng/ml [7]: 0.241
FX activation by NovoSeven (0.7 ng/ml) + 1 U/µl heparin, TFPI 20000.00 ng/ml [7]: 0.222
FX activation by NovoSeven (0.7 ng/ml), Control [7]: 1.47
FX activation by NovoSeven (4 ng/ml), Control (no TFPI) [7]: 1.66
FX activation by NovoSeven (4 ng/ml), TFPI 0.002048 ng/ml [7]: 1.72
FX activation by NovoSeven (4 ng/ml), TFPI 0.010240 ng/ml [7]: 1.7
FX activation by NovoSeven (4 ng/ml), TFPI 0.051200 ng/ml [7]: 1.73
FX activation by NovoSeven (4 ng/ml), TFPI 0.2560 ng/ml [7]: 1.7
FX activation by NovoSeven (4 ng/ml), TFPI 1.28 ng/ml [7]: 1.66
FX activation by NovoSeven (4 ng/ml), TFPI 6.40 ng/ml [7]: 1.59
FX activation by NovoSeven (4 ng/ml), TFPI 32.00 ng/ml [7]: 1.5
FX activation by NovoSeven (4 ng/ml), TFPI 160.00 ng/ml [7]: 1.34
FX activation by NovoSeven (4 ng/ml), TFPI 800.00 ng/ml [7]: 1.02
FX activation by NovoSeven (4 ng/ml), TFPI 4000.00 ng/ml [7]: 0.406
FX activation by NovoSeven (4 ng/ml), TFPI 20000.00 ng/ml [7]: 0.206
O.D, FX activation by NovoSeven (0.64 ng/ml), Control (no TFPI) [7]: 1.51 O.D
O.D, FX activation by NovoSeven (0.64 ng/ml), TFPI 0.002048 ng/ml [7]: 1.5 O.D
O.D, FX activation by NovoSeven (0.64 ng/ml), TFPI 0.010240 ng/ml [7]: 1.51 O.D
O.D, FX activation by NovoSeven (0.64 ng/ml), TFPI 0.051200 ng/ml [7]: 1.52 O.D
O.D, FX activation by NovoSeven (0.64 ng/ml), TFPI 0.2560 ng/ml [7]: 1.43 O.D
O.D, FX activation by NovoSeven (0.64 ng/ml), TFPI 1.28 ng/ml [7]: 1.47 O.D
O.D, FX activation by NovoSeven (0.64 ng/ml), TFPI 6.40 ng/ml [7]: 1.42 O.D
O.D, FX activation by NovoSeven (0.64 ng/ml), TFPI 32.00 ng/ml [7]: 1.38 O.D
O.D, FX activation by NovoSeven (0.64 ng/ml), TFPI 160.00 ng/ml [7]: 1.34 O.D
O.D, FX activation by NovoSeven (0.64 ng/ml), TFPI 800.00 ng/ml [7]: 1.04 O.D
O.D, FX activation by NovoSeven (0.64 ng/ml), TFPI 4000.00 ng/ml [7]: 0.83 O.D
O.D, FX activation by NovoSeven (0.64 ng/ml), TFPI 20000.00 ng/ml [7]: 0.429 O.D
Substance: Tissue Factor Pathway Inhibitor (TFPI) (from UniProt P10646 29-304)
